From publication PMC6856015

Target: Calmodulin (recombinant CaM) (UniProt P0DP23)
Experiment: cross-linking; photoaffinity labeling (PAL): 5 μM CaM and 5 μM Bpa-Mover(203-221), 10 mM HEPES pH 7.2, 150 mM KCl, 5 mM DTT, 2 h RT in the dark, with 100 μM Ca2+, UV irradiation; photoadducts read by SDS-PAGE and MALDI-TOF-MS

Q: With “Bpa-Mover(203-221), photoreactive variant of the rat Mover peptide 203-221 (from UniProt A8WCF8 203-221)” as the substance, how does the stoichiometry N (peptide per CaM) read?
A: Its stoichiometry N (peptide per CaM) is 1.
